Consider 15 molecules from US20220033441A1 (LEIDOS, published 2022).

The target of one test is T1, Tag1-LAG3 protein (UniProt P18627 23-450, limits assumed).
T1 construct: Kit reagent (Cisbio); Tag1 is not identified
T1 sequence (looked up): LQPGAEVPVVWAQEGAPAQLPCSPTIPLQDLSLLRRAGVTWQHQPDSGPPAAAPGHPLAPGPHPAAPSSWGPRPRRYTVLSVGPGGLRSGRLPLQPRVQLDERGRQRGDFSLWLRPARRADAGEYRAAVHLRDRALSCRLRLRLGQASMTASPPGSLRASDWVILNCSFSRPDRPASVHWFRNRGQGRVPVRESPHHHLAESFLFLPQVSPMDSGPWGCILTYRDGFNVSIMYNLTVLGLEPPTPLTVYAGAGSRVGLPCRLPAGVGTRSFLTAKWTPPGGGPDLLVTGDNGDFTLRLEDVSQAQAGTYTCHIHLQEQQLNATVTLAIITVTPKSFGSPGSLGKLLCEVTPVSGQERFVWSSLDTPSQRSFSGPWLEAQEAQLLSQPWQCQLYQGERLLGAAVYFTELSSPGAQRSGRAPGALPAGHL
The experiment in a line: HTRF (TR-FRET) competition, inhibition of LAG3:MHC-II binding. The protocol:
Anti-Tag1-Tb and anti-Tag2-XL665 antibodies were added and incubated for one hour, then simultaneous measurement of both […] cryptate and 665 nm acceptor emissions were read.
On the technique in general: In TR-FRET formats the signal depends on donor and acceptor labels being close together.

Test [1] has as its target T2, human LAG3 (Human LAG3/FGL1 TR-FRET Binding Assay, BPS Bioscience) (human, UniProt P18627 23-450, limits assumed).
T2 construct: Kit reagent (BPS Bioscience); construct not described
T2 sequence (looked up): T1 sequence (looked up)
In words: TR-FRET competition, inhibition of LAG3:FGL1 binding. The protocol:
Reaction mixes were incubated 1 hr at RT before development. After development, plate was read in a Tecan M1000 TR-FRET instrument.

As for SLPYSNIYIELDSGYWNSES (20-mer peptide) [peptide 155], in the test with Tag1-LAG3 protein, the IC50 worked out at 0.13 µM. For the molecule ITMWGYDTDEDDNLVIYLTD (20-mer peptide) [peptide 6], the IC50 in test [1] was 2.6 µM.

B1: Peptide LG11 (peptide)
peptide: SAPWEPLHWPEDWWQGTGEW
notes: positive peptide control in the LAG3/MHC-II assay
In the test with Tag1-LAG3 protein, B1 yielded an IC50 of 18.4 µM.

B2: Peptide LG56 (peptide)
peptide: HIQNWSYWLNQDMMNQQVWKS
notes: peptide positive control in the LAG3/FGL1 assay
In turn, B2 returned an IC50 in test [1] of 14 µM. In the test with Tag1-LAG3 protein, LAGHYHYLTAGSQDIYEYND (20-mer peptide) [peptide 62] came in with an IC50 of 0.308 µM.

Take GGVAIFLALFGGMVSSWEWD (20-mer peptide) [peptide 141]: the IC50 with Tag1-LAG3 protein worked out at 6.69 µM. For the molecule VFRMDWDEKEVRLYADDILL (20-mer peptide) [peptide 146], the figures for the IC50 (in test [1]; with Tag1-LAG3 protein) were 7.2 µM and 0.199 µM, respectively. AEFDHFDVGQTLDIASWDSY (20-mer peptide) [peptide 69] yielded an IC50 in test [1] of 3.3 µM. On to EDKAPWWQLDMEFEFRLDRV (20-mer peptide) [peptide 68], for which the IC50 is about 21 µM in test [1] and 2.94 µM in the test with Tag1-LAG3 protein. In the test with Tag1-LAG3 protein, RERGGDDFAQDDYYVTIFYR (20-mer peptide) [peptide 11] had an IC50 of 0.353 µM. With TVDADGDLYFDMEEGVLVFM (20-mer peptide) [peptide 41], the IC50 in test [1] is 9.2 µM. QGSTSGWGFGAMYELTYDVY (20-mer peptide) [peptide 16] gave an IC50 in the test with Tag1-LAG3 protein of 0.22 µM. Turning to RTDRYTLSYIWTSDEWMLFD (20-mer peptide) [peptide 115], the figures for the IC50 (in test [1]; in the test with Tag1-LAG3 protein) were 9.1 µM and 0.154 µM, respectively. In the test with Tag1-LAG3 protein, RVPAPVKEQVQKQYPNAGAI (also called Low Activity Peptide) [Peptide 93] had an IC50 of 63 µM. In test [1], EHNREQVLEVMYSFQVNDYF (20-mer peptide) [peptide 154] yielded an IC50 of 7.2 µM.

One may read the IC50 as the concentration at which inhibition is half-maximal. A low value points to greater potency.
